In this assay the target is T1, murine NGF purified from submandibular glands (murine, UniProt P01139 122-239, limits assumed).
T1 construct: Native protein purified from tissue; also called NGF neurotrophin
Put plainly: ELISA, murine NGF coated at 10 ug/ml, COS supernatants with IgG1, detection by anti-human Cgamma, OD450. As for the experimental part:
For immobilization on plastic, 96 well Maxi sorb plates were incubated at 4° C. overnight with a solution containing the respective ligands of the two antibodies (the purified recombinant immunoadhesin TrkA Camel and the murine NGF purified from submandibular glands) at a concentration of 10 μg/ml in 0.1M pH 9.6 sodium carbonate buffer.
After one hour of blocking with PBS containing 3% milk (MPBS) at ambient temperature, concentrated supernatants were incubated with serial dilutions (1:2, 1.20; 1:200) and in parallel also with the supernatant of non transfected COS cells (negative control).
For orientation: An ELISA detects its analyte on a solid surface through an enzyme-linked reagent.

T1 sequence (P01139 122-239 limits assumed): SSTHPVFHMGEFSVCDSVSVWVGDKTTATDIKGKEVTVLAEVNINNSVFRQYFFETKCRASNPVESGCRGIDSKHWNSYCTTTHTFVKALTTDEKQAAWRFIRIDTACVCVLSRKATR

B1: alpha D11 humanized antibody (Hum alpha D11), IgG1 form (antibody, V domains shown)
VH: EVQLVESGGGLVQPGGSLRLSCAASGFSLTNNNVNWVRQAPGKGLEWVGGVWAGGATDYNSALKSRFTISRDNSKNTAYLQMNSLRAEDTAVYYCARDGGYSSSTLYAMDAWGQGTLVTVSS
VL: DIQMTQSPSSLSASVGDRVTITCRASEDIYNALAWYQQKPGKAPKLLIYNTDTLHTGVPSRFSGSGSGTDYTLTISSLQPEDFATYFCQHYFHYPRTFGQGTKVEIK
notes: also called Hum αD11; Hum alpha D11 VH / Hum alpha D11Vk
In the case of B1, the binding result is recorded as “binds”.

These data come from patent US20090300780A1 (AbbVie / Abbott, published 2009).
